From patent publication US20260070986A1 (AFFIMED, published 2026)

How the values were obtained:
[1] = target: T1, cynomolgus CD16 on transfected CHO cells (cAg_36) (cynomolgus, UniProt Q8SPW2 17-254); test: flow cytometry on cyCD16 CHO cells (cAg_36), one-site fit of MFI, mean
T1 construct: whole, on cells; also called cyCD16
Description: (§1) After washing in FACS buffer, cells were incubated in 50 μL FACS buffer without antibodies or with titrated antibodies starting at a concentration of 1000 nM followed by elven 3-fold serial dilutions for 40-50 min on ice in the dark. After washing twice, cells were incubated with FITC-conjugated goat anti-human IgG (H+L) (Jackson Immunologies, cat.: 109-096-088) for 40-50 min on ice in the dark. […] After washing, binding was measured by flow cytometry and mean fluorescence intensities (MFI) of cell samples were calculated and corrected for background staining using control cells stained with secondary antibodies only.
(§2) Equilibrium dissociation constants (KD) of antibody binding were calculated by plotting MFI values and fitting a non-linear regression model for one-site binding to hyperbolic dose-response curves using GraphPad Prism.

[2] = target: T2, human CD16A (158F) on transfected CHO cells (cAg_34) (human, UniProt P08637 17-254); test: flow cytometry on huCD16A (158F) CHO cells (cAg_34), one-site fit of MFI, Exp. 1
T2 construct: Exact cell-anchored construct not described; also called huCD16A
T2 sequence (P08637 17-254 limits assumed): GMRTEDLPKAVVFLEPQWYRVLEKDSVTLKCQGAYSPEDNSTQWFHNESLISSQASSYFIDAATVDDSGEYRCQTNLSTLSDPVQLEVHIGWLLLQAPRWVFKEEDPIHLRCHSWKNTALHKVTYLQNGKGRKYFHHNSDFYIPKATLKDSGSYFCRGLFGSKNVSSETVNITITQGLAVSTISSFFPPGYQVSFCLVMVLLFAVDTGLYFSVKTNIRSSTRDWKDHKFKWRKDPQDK
Description: (§3) After washing twice, cells were incubated with FITC-conjugated goat anti-human IgG (H+L) (Jackson Immunologies, cat.: 109-096-088) for 40-50 min on ice in the dark. […] After washing, binding was measured by flow cytometry and mean fluorescence intensities (MFI) of cell samples were calculated and corrected for background staining using control cells stained with secondary antibodies only.
as §2

[3] = target: T2, human CD16A (158F) on transfected CHO …; test: flow cytometry on huCD16A (158F) CHO cells (cAg_34), one-site fit of MFI, mean
Description: as §3, §2

[4] = target: T2, human CD16A (158F) on transfected CHO …; test: flow cytometry on huCD16A (158F) CHO cells (cAg_34), one-site fit of MFI, Exp. 3
Description: as §3, §2

[5] = target: T1, cynomolgus CD16 on transfected CHO …; test: flow cytometry on cyCD16 CHO cells (cAg_36), one-site fit of MFI, Exp. 1
Description: as §3, §2

[6] = target: T1, cynomolgus CD16 on transfected CHO …; test: flow cytometry on cyCD16 CHO cells (cAg_36), one-site fit of MFI, Exp. 3
Description: as §3, §2

[7] = target: T2, human CD16A (158F) on transfected CHO …; test: flow cytometry on huCD16A (158F)-transfected CHO cells (cAg_34), anti-human IgG-FITC detection
Description: as §1

[8] = target: T1, cynomolgus CD16 on transfected CHO …; test: flow cytometry on cyCD16-transfected CHO cells (cAg_36), anti-human IgG-FITC detection
Description: as §1

[9] = target: T1, cynomolgus CD16 on transfected CHO …; test: flow cytometry on cyCD16 CHO cells (cAg_36), one-site fit of MFI, Exp. 2
Description: as §1, §2

[10] = target: T2, human CD16A (158F) on transfected CHO …; test: flow cytometry on huCD16A (158F) CHO cells (cAg_34), one-site fit of MFI, Exp. 2
Description: as §3, §2

T1 sequence (Q8SPW2 17-254): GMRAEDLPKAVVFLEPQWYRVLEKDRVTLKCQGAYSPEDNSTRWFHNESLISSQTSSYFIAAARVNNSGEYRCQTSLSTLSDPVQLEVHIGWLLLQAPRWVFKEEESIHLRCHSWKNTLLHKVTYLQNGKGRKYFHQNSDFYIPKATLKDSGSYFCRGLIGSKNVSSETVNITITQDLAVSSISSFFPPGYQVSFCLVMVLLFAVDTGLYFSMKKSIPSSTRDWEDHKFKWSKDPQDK

B1: scFv-IgAb_381 (Target specificity x CD16A, CD16a4) (bispecific antibody)
chain 1: EVQLVESGGGVVQPGRSLRLSCSASGFTFSGYGLSWVRQAPGKGLEWVAMISSGGSYTYYADSVKGRFAISRDNAKNTLFLQMDSLRPEDTGVYFCARHGDDPAWFAYWGQGTPVTVSSASTKGPSVFPLAPSSKSTSGGTAALGCLVKDYFPEPVTVSWNSGALTSGVHTFPAVLQSSGLYSLSSVVTVPSSSLGTQTYICNVNHKPSNTKVDKKVEPKSCDKTHTCPPCPAPEFEGGPSVFLFPPKPKDTLMISRTPEVTCVVVAVSHEDPEVKFNWYVDGVEVHNAKTKPREEQYNSTYRVVSVLTVLHQDWLNGKEYKCKVSNKALPAPIEKTISKAKGQPREPQVYTLPPSREEMTKNQVSLTCLVKGFYPSDIAVEWESNGQPENNYKTTPPVLDSDGSFFLYSKLTVDKSRWQQGNVFSCSVMHEALHNHYTQKSLSLSPGGGGGSGGGGSGGGGSGGGGSGGGGSGGGGSSYELTQPLSVSVALGQTARITCGGHNIGSKNVHWYQQKPGQAPVLVIYQDNKRPSGIPERFSGSNSGNTATLTISRAQAGDEADYYCQVWDNYNVLFGCGTKLTVLGGSGGSGGSGGSGGSGGSGGSQVQLVQSGAEVKKPGASVKVSCKASGYTFTSYYMHWVRQAPGQCLEWMGAIEPTYGSTSYAQKFQGRVTMTRDTSTSTVYMELSSLRSEDTAVYYCARGSAYYYDFADYWGQGTLVTVS
chain 2: DIQLTQSPSSLSASVGDRVTITCSVSSSISSNNLHWYQQKPGKAPKPWIYGTSNLASGVPSRFSGSGSGTDYTFTISSLQPEDIATYYCQQWSSYPYMYTFGQGTKVEIKRTVAAPSVFIFPPSDEQLKSGTASVVCLLNNFYPREAKVQWKVDNALQSGNSQESVTEQDSKDSTYSLSSTLTLSKADYEKHKVYACEVTHQGLSSPVTKSFNRGEC
Kd [1]: 32.8 nM
Kd [2]: 22.1 nM
Kd [3]: 26.2 nM
Kd [4]: 27.1 nM
Kd [5]: 38.6 nM
Kd [6]: 28.2 nM
EC50 (read off the curve) [7]: ~30 nM
EC50 (read off the curve) [8]: ~40 nM
Kd [9]: 31.7 nM
Kd [10]: 29.3 nM
